From patent US20230212305A1 (published 2023)
Blank lines part the entries; values can stand above or below the binder they belong to.

Columns and labels:
[1] = target: T1, cynomolgus ABCG2 (Macaca fascicularis) (Macaca fascicularis (cynomolgus), UniProt Q5MB13 1-654 (rhesus entry)); assay: flow cytometry on cells expressing cynomolgus ABCG2; paragraph 395: non-significant binding = -
T1 construct: also called cABCG2
T1 sequence: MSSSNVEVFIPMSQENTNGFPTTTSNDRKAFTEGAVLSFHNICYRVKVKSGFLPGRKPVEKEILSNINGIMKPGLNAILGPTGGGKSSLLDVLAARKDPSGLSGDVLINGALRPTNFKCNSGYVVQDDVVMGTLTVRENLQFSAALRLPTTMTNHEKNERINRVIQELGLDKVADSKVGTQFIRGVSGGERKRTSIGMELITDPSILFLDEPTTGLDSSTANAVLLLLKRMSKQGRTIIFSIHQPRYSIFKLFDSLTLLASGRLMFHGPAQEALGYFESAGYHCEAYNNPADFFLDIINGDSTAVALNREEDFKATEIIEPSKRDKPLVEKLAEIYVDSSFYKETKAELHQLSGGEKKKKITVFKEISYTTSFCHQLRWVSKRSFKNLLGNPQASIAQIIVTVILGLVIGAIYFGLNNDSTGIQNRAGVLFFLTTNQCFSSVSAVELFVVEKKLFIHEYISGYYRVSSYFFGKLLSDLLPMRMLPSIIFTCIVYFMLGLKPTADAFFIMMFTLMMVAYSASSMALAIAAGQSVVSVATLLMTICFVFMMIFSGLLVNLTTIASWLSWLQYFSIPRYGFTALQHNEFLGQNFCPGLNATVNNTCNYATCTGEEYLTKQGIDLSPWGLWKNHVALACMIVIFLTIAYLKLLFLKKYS
Method: (§1) Cell Binding Assays. Antibody binding to cells was evaluated by flow cytometry. […] After incubating cells on ice for 30 min, cells were washed twice with flow cytometry buffer. Bound antibody was detected with PE-labeled F(ab′)₂ fragment goat anti-human IgG (Jackson ImmunoResearch) and evaluated on an Attune NxT flow cytometer.

human ABCG2 = target: T2, human ABCG2 (human, UniProt Q9UNQ0 1-655); assay: flow cytometry titration on 293T_ABCG2_OX cells; column Affinity for human ABCG2 (nM)
T2 construct: also called hG2; KPG2
T2 sequence: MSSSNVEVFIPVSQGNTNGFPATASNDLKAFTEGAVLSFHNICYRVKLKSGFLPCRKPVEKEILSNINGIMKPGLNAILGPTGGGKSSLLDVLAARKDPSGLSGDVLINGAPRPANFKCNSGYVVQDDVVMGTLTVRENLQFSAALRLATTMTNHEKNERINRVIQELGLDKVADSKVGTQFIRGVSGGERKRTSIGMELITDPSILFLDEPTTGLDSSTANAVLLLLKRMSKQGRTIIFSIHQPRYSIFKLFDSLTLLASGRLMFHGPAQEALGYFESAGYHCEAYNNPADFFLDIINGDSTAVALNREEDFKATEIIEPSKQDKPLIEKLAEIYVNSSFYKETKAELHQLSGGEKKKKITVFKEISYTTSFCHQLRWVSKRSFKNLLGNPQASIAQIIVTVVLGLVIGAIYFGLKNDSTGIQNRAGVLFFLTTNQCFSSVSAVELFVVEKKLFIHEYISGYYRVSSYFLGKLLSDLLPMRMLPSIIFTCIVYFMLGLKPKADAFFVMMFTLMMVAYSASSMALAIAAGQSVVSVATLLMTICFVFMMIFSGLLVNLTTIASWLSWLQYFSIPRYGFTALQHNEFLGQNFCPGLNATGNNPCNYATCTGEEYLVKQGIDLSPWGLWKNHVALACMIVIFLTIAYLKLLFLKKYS
Method: as §1

[2] = target: T1, cynomolgus ABCG2 (Macaca fascicularis); assay: flow cytometry on cells expressing cynomolgus ABCG2
Method: as §1

B1: G2.65 mouse (antibody, human IgG1, V domains shown)
VH: QGQMHQSGAELVKPGASVKLSCKTSGFTFNSGYISWLKQKPRQSLEWIAWIYAGTGISNFNQKFTGKAQLTVDTSSSTAYMQLSSLTSADSAIYFCASGARKTLDFWGQGTSVTVSS
VL: DIQMTQSSSYLSVSVGGRVTITCKASDQINYWLAWYQQKPGNAPRLLISGATSLETGVPSRFSGSGSGKDYTLSITSFQTEDVATYYCQQYWTTPYTFGGGTKVEIK
notes: Variable regions cloned onto human IgG1 constant heavy chain and human kappa constant light chain; also called KNJY-G2-65
binding result [1]: no binding
Kd (human ABCG2): 0.179 µM

B2: G2.173 mouse (antibody, human IgG1, V domains shown)
VH: QVQLQQSGADLVRPGASVKLSCTASGFNIKDDYVHWVKQRPEQGLEWIGRIDPANGNTRYAPKFRGKATMTADTSSNTAYLQLSSLTSADTAVYYCSPPLWVGGFAYWGQGTLVTVSS
VL: DVVMTQTPLSLPVSLGDQASISCRSSQSLVHSDVNTYLHWYLQRPGQSPKLLIYKVSNRFSGVPDRFSGSGSGTDFTLKISRVESEDLGIYFCSQTTHVPYTFGGGTKLEIK
notes: Variable regions cloned onto human IgG1 constant heavy chain and human kappa constant light chain
binding result [1]: no binding
Kd (human ABCG2): 0.017 µM

B3: G2.173 Humanized 1 (antibody, human IgG1, V domains shown)
VH: EVQLVQSGAEVKKPGASVKVSCKASGFNIKDDYVHWVRQAPGQGLEWIGRIDPANGNTRYAPKFRGRATMTADTSISTAYMELSRLRSDDTAVYYCSPPLWVGGFAYWGQGTLVTVSS
VL: DVVMTQSPLSLPVTLGQPASISCRSSQSLVHSDVNTYLHWYQQRPGQSPRLLIYKVSNRFSGVPDRFSGSGSGTDFTLKISRVEAEDVGVYFCSQTTHVPYTFGGGTKLEIK
binding result [1]: no binding
Kd (human ABCG2): 0.046 µM

B4: G2.173 Humanized 2 (antibody, human IgG1, V domains shown)
VH: EVQLVQSGAEVKKPGASVKVSCKASGFNIKDDYVHWVRQAPGQGLEWIGRIDPAQGNTRYAPKFRGRATMTADTSISTAYMELSRLRSDDTAVYYCSPPLWVGGFAYWGQGTLVTVSS
VL: DVVMTQSPLSLPVTLGQPASISCRSSQSLVHSDVNTYLHWYQQRPGQSPRLLIYKVSNRFSGVPDRFSGSGSGTDFTLKISRVEAEDVGVYFCSQTTHVPYTFGGGTKLEIK
binding result [1]: no binding
Kd (human ABCG2): 0.273 µM

B6: G2.302 Humanized (antibody, human IgG1, V domains shown)
VH: EIQLVQSGAEVKKPGASVKVSCKASGYTFTDYYINWVRQAPGQRLEWIGWIYPGNVNVKYNEKFKGRATLTVDTSASTGYMELSSLRSEDTAVYFCARSIGLRYFDNWGQGTLVTVSS
VL: EKVLTQSPATLSLSPGERATLSCRASSSVHYMYWHQQKPGQSPRLWIYYTSNLAPGVPARFSGSGSGNDYTLTISSLEPEDFAVYYCQQFTTSTWTFGGGTKLEIK
Kd (human ABCG2): 0.059 µM
binding result [2]: binds

B8: G2.630 rat (antibody, human IgG1, V domains shown)
VH: EVQLVESGPGLVKPSQSLSLTCSVTGYTITSGYDWTWIRKFPGNKMEWMGYISYSGFTNYNPSLRSRISITRDTSKNQFFLQLNSVTTEDTATYYCTRTRGYNPFAYWGQGTLVTVSS
VL: DVVMTQSPSLLSASVGDRVTLSCKAGRNINNYLAWYQQKLGKAPKLLIYNTNSLQTGIPSRFSGSGSGTDFTLTISSLQPEDVATYFCQQYNSWTTFGSGTKLEIK
notes: as for B2
binding result [2]: binds

B11: G2.343 rat (antibody, human IgG1, V domains shown)
VH: SVQLKESGPGLVQPSQTLSLTCTVSGFSLTSNGVSWVRQPPGKGLEWIAAISSGGSTYYNSVLKSRLSISRDTSKSQVFLKMNSLQTEDTAIYFCTRDTYYGYNQIPFVYWGQGTLVTVSS
VL: DVVLAQTPPTLSATIGQSVSISCRSSQSLLHSSGNTYLNWLLQRPGQPPQLLIYLVSRLESRVPNRFSGSGSGTDFTLKISGVEAEDLGVYYCVQSTHAPRTFGGGTKLELK
notes: as for B2
Kd (human ABCG2): 0.04 µM
binding result [2]: binds

B13: G2.348 rat (antibody, human IgG1, V domains shown)
VH: EVQLVESGPGLMQPSQTLSLTCTVSGFSLTSNGVSWVRQPPGKGLEWIATISSGGNTNYNSALKSRLSISRDTSKSQVFLKMNSLQTEDTAIYFCTRVGYYGYNPIWFAYWGQGTLVTVSS
VL: DVVMTQTPPTLSATIGHSVSISCRSSQSLFHSSGNTYLSWFLQRPGQPPQLLIYLVSRLESRVPNRFSGSGSGTDFTLKISVLEAEDLGVYYCVQTTHAPFTFGSGTKLEIK
notes: as for B2
Kd (human ABCG2): 0.08 µM
binding result [2]: binds

B14: G2.394 rat (antibody, human IgG1, V domains shown)
VH: EVQLKESGPGLVQPSQTLSLTCTVSGFSLTDYTITWVRQPPGKGLEWIAATSVGGATHYNSPLKSRLSISGDTSKSQVFLKMNSLRTEDTAMYFCVRSGYYSTYMNWGRGTMVTVSS
VL: DVVMTQTPPTFSATIGQSVSISCRSSQSLLHSSGNTFLSWLLQRPGQPPQLLIYLVSRLEFGVPNRFSGSGSGTDFTLKISGVEAEDLGVYYCVQSTHVMNTFGAGTKLEIK
notes: as for B2
Kd (human ABCG2): 0.088 µM
binding result [2]: binds

B15: G2.420 rat (antibody, human IgG1, V domains shown)
VH: SVQLMESGPGLVQPSQTLSLTCTVSGFSLNSYNVNWVRQPPGKGLEWIAAISSGGSTYYNSVLKSRLSITRDTSKSQVFLKMNSLQTEDTAMYFCARSGYYSSYMNWGQGVMVTVSS
VL: DVVMTQTPPTLSATIGQSVSISCRSSQSLLHSTGNTYLNWLLQRPGQPPQLLIYLVSRLEYGVPNRFSGSGSGTDFTLKISGVEAEDLGVYYCAQSTHALNTFGAGTKLELK
notes: Variable regions cloned onto human IgG1 constant heavy chain and human kappa constant light chain; also called G.420; KNJY-G2-420
Kd (human ABCG2): 0.056 µM
binding result [2]: binds

Now from value to binder:

Kd (human ABCG2): 0.025 µM
binding result [2]: binds
B5: G2.302 mouse (antibody, human IgG1, V domains shown)
VH: QIQLQQSGPELVRPGASVKISCKASGYTFTDYYINWVKQRPGQGLEWIGWIYPGNVNVKYNEKFKGKATLTVDTSSSTGYMQLRSLTSEDSAVYFCARSIGLRYFDNWGQGTTLTVSS
VL: EKVLTQSPAIMSASLGEKVTMSCRASSSVHYMYWHQQKSDASPRLWIYYTSNLAPGVPARFSGSGSGNFYSLTISSVEDEDGATYYCQQFTTSTWTFGGGTKLEIK
notes: Variable regions cloned onto human IgG1 constant heavy chain and human kappa constant light chain; also called G.302

Kd (human ABCG2): 0.0079 µM
binding result [2]: binds
B7: G2.257 mouse (antibody, human IgG1, V domains shown)
VH: EVQLQQSGPELVKPGASLKISCKTFGYSFTGYYMHWVKQSPEKSLEWIGKIVPSTGGTTYNQKFKAKATLTVDKSSFTAYMQLKSLTTEDSAVYYCAREKVYGYDVYYFDYWGQGTTLTVSS
VL: DIQMTQTPSSLSASLGDRVTITCSTSQGVRSYLNWYQQKPDGSVKLLIYYTSSLHSGVPSRFSGSGSGTDYSLTISNLEPEDIATYYCQQYSKLPYTFGGGTKLELK
notes: as for B2

binding result [2]: binds
B9: G2.318 rat (antibody, human IgG1, V domains shown)
VH: EVKLLESGPGLVKPSQSLSLTCSVTGYTITSGYDWSWIRKFPGNKMEWMGYISYSGWTNYNPSLRSRISISRDTSKNQFFLQLNSVTTEDTATYYCARVRGYNPFAYWGQGTLVTVSS
VL: DIVMTQSPSLLSASVGDRVTLSCKAGQNINNYLAWYQQKLGEAPKLLIYNANSLQTGIPSRFSGSGSGTDFTLTISSLQPEDVATYFCQQYNSWTTFGSGTKLEIK
notes: as for B2

binding result [2]: binds
B10: G2.320 rat (antibody, human IgG1, V domains shown)
VH: EVQLEESGPGLVKPSQSLSLTCSVTGYTITSGYDWTWIRKFPGNKMEWMGYISYSGFTNYNPSLRSRISITRDTSKNQFFLQLNSVTTEDTATYYCTRTRGYNPFAYWGQGASVSSAS
VL: DIVMTQSPSLLSASVGDRVTLSCKAGRNINNYLAWYQQKLGKAPKLLIYNTNSLQTGIPSRFSGSGSGTDFTLTISSLQPEDVATYFCQQYNSWTTFGSGTKLEIK
notes: as for B2

Kd (human ABCG2): 0.168 µM
binding result [2]: binds
B12: G2.346 rat (antibody, human IgG1, V domains shown)
VH: SVQWKESGPGLVQPSQTLSLTCTVSGFSLTSNGVSWVRQPPGKGLEWIAAISSGGSTYYNSGLKSRLSISRDTSKSQVFLKMNSLQTEDTAIYFCTRAGYYGYNPIWFTYWGQGTLVTVSS
VL: DVVMTQTPPTLSATIGQSVSISCRSSQSLLHGSGNTYLNWLLQRPGQPPQILIYLVSRLESRVPKRFSGSGSGTDFTLKISGVEADDLGVYYCVQSTHAPFTFGSGTKLELK
notes: as for B2
